The values below come from article PMC12416549 (2024).

B1: E54M (designed binder)
chain: SMEEEVEKAAKEYEKKKKEAIEKHLEKLKAKDKEAAERFLKELEEAAKEYAKDMAKTMSEEEAKRRAKKYKEKVLLSELSEEEQKEIKEAEEKLVRTILKYVEEAAK
B2: E26Y (designed binder)
chain: SMEEEVEKAAKEYEKKKKEAIEKHLYKLKAKDKEAAERFLKELEEAAKEYAKDEAKTMSEEEAKRRAKKYKEKVLLSELSEEEQKEIKEAEEKLVRTILKYVEEAAK
B3: L75W (designed binder)
chain: SMEEEVEKAAKEYEKKKKEAIEKHLEKLKAKDKEAAERFLKELEEAAKEYAKDEAKTMSEEEAKRRAKKYKEKVWLSELSEEEQKEIKEAEEKLVRTILKYVEEAAK
B4: E92S (designed binder)
chain: SMEEEVEKAAKEYEKKKKEAIEKHLEKLKAKDKEAAERFLKELEEAAKEYAKDEAKTMSEEEAKRRAKKYKEKVLLSELSEEEQKEIKEAESKLVRTILKYVEEAAK
B5: K23S (designed binder)
chain: SMEEEVEKAAKEYEKKKKEAIESHLEKLKAKDKEAAERFLKELEEAAKEYAKDEAKTMSEEEAKRRAKKYKEKVLLSELSEEEQKEIKEAEEKLVRTILKYVEEAAK
B6: E62T (designed binder)
chain: SMEEEVEKAAKEYEKKKKEAIEKHLEKLKAKDKEAAERFLKELEEAAKEYAKDEAKTMSEETAKRRAKKYKEKVLLSELSEEEQKEIKEAEEKLVRTILKYVEEAAK
B7: R38P (designed binder)
chain: SMEEEVEKAAKEYEKKKKEAIEKHLEKLKAKDKEAAEPFLKELEEAAKEYAKDEAKTMSEEEAKRRAKKYKEKVLLSELSEEEQKEIKEAEEKLVRTILKYVEEAAK
B8: V6P (designed binder)
chain: SMEEEPEKAAKEYEKKKKEAIEKHLEKLKAKDKEAAERFLKELEEAAKEYAKDEAKTMSEEEAKRRAKKYKEKVLLSELSEEEQKEIKEAEEKLVRTILKYVEEAAK
B9: I98T (designed binder)
chain: SMEEEVEKAAKEYEKKKKEAIEKHLEKLKAKDKEAAERFLKELEEAAKEYAKDEAKTMSEEEAKRRAKKYKEKVLLSELSEEEQKEIKEAEEKLVRTTLKYVEEAAK
B10: E82Y (designed binder)
chain: SMEEEVEKAAKEYEKKKKEAIEKHLEKLKAKDKEAAERFLKELEEAAKEYAKDEAKTMSEEEAKRRAKKYKEKVLLSELSEYEQKEIKEAEEKLVRTILKYVEEAAK
B11: V102N (designed binder)
chain: SMEEEVEKAAKEYEKKKKEAIEKHLEKLKAKDKEAAERFLKELEEAAKEYAKDEAKTMSEEEAKRRAKKYKEKVLLSELSEEEQKEIKEAEEKLVRTILKYNEEAAK
B12: L40M (designed binder)
chain: SMEEEVEKAAKEYEKKKKEAIEKHLEKLKAKDKEAAERFMKELEEAAKEYAKDEAKTMSEEEAKRRAKKYKEKVLLSELSEEEQKEIKEAEEKLVRTILKYVEEAAK
B13: K69D (designed binder)
chain: SMEEEVEKAAKEYEKKKKEAIEKHLEKLKAKDKEAAERFLKELEEAAKEYAKDEAKTMSEEEAKRRAKDYKEKVLLSELSEEEQKEIKEAEEKLVRTILKYVEEAAK
B14: E92F (designed binder)
chain: SMEEEVEKAAKEYEKKKKEAIEKHLEKLKAKDKEAAERFLKELEEAAKEYAKDEAKTMSEEEAKRRAKKYKEKVLLSELSEEEQKEIKEAEFKLVRTILKYVEEAAK
B15: H24G (designed binder)
chain: SMEEEVEKAAKEYEKKKKEAIEKGLEKLKAKDKEAAERFLKELEEAAKEYAKDEAKTMSEEEAKRRAKKYKEKVLLSELSEEEQKEIKEAEEKLVRTILKYVEEAAK
B16: K23R (designed binder)
chain: SMEEEVEKAAKEYEKKKKEAIERHLEKLKAKDKEAAERFLKELEEAAKEYAKDEAKTMSEEEAKRRAKKYKEKVLLSELSEEEQKEIKEAEEKLVRTILKYVEEAAK
B17: K56E (designed binder)
chain: SMEEEVEKAAKEYEKKKKEAIEKHLEKLKAKDKEAAERFLKELEEAAKEYAKDEAETMSEEEAKRRAKKYKEKVLLSELSEEEQKEIKEAEEKLVRTILKYVEEAAK
B18: E54I (designed binder)
chain: SMEEEVEKAAKEYEKKKKEAIEKHLEKLKAKDKEAAERFLKELEEAAKEYAKDIAKTMSEEEAKRRAKKYKEKVLLSELSEEEQKEIKEAEEKLVRTILKYVEEAAK
B19: E103H (designed binder)
chain: SMEEEVEKAAKEYEKKKKEAIEKHLEKLKAKDKEAAERFLKELEEAAKEYAKDEAKTMSEEEAKRRAKKYKEKVLLSELSEEEQKEIKEAEEKLVRTILKYVHEAAK
B20: I98N (designed binder)
chain: SMEEEVEKAAKEYEKKKKEAIEKHLEKLKAKDKEAAERFLKELEEAAKEYAKDEAKTMSEEEAKRRAKKYKEKVLLSELSEEEQKEIKEAEEKLVRTNLKYVEEAAK
B21: K17C (designed binder)
chain: SMEEEVEKAAKEYEKKCKEAIEKHLEKLKAKDKEAAERFLKELEEAAKEYAKDEAKTMSEEEAKRRAKKYKEKVLLSELSEEEQKEIKEAEEKLVRTILKYVEEAAK
B22: K17W (designed binder)
chain: SMEEEVEKAAKEYEKKWKEAIEKHLEKLKAKDKEAAERFLKELEEAAKEYAKDEAKTMSEEEAKRRAKKYKEKVLLSELSEEEQKEIKEAEEKLVRTILKYVEEAAK
B23: Y50E (designed binder)
chain: SMEEEVEKAAKEYEKKKKEAIEKHLEKLKAKDKEAAERFLKELEEAAKEEAKDEAKTMSEEEAKRRAKKYKEKVLLSELSEEEQKEIKEAEEKLVRTILKYVEEAAK
B24: S1V (designed binder)
chain: VMEEEVEKAAKEYEKKKKEAIEKHLEKLKAKDKEAAERFLKELEEAAKEYAKDEAKTMSEEEAKRRAKKYKEKVLLSELSEEEQKEIKEAEEKLVRTILKYVEEAAK
B25: E34Y (designed binder)
chain: SMEEEVEKAAKEYEKKKKEAIEKHLEKLKAKDKYAAERFLKELEEAAKEYAKDEAKTMSEEEAKRRAKKYKEKVLLSELSEEEQKEIKEAEEKLVRTILKYVEEAAK
B26: L76T (designed binder)
chain: SMEEEVEKAAKEYEKKKKEAIEKHLEKLKAKDKEAAERFLKELEEAAKEYAKDEAKTMSEEEAKRRAKKYKEKVLTSELSEEEQKEIKEAEEKLVRTILKYVEEAAK
B27: A51D (designed binder)
chain: SMEEEVEKAAKEYEKKKKEAIEKHLEKLKAKDKEAAERFLKELEEAAKEYDKDEAKTMSEEEAKRRAKKYKEKVLLSELSEEEQKEIKEAEEKLVRTILKYVEEAAK
B28: E44G (designed binder)
chain: SMEEEVEKAAKEYEKKKKEAIEKHLEKLKAKDKEAAERFLKELGEAAKEYAKDEAKTMSEEEAKRRAKKYKEKVLLSELSEEEQKEIKEAEEKLVRTILKYVEEAAK
B29: E91C (designed binder)
chain: SMEEEVEKAAKEYEKKKKEAIEKHLEKLKAKDKEAAERFLKELEEAAKEYAKDEAKTMSEEEAKRRAKKYKEKVLLSELSEEEQKEIKEACEKLVRTILKYVEEAAK
B30: E72D (designed binder)
chain: SMEEEVEKAAKEYEKKKKEAIEKHLEKLKAKDKEAAERFLKELEEAAKEYAKDEAKTMSEEEAKRRAKKYKDKVLLSELSEEEQKEIKEAEEKLVRTILKYVEEAAK
B31: L99Y (designed binder)
chain: SMEEEVEKAAKEYEKKKKEAIEKHLEKLKAKDKEAAERFLKELEEAAKEYAKDEAKTMSEEEAKRRAKKYKEKVLLSELSEEEQKEIKEAEEKLVRTIYKYVEEAAK
B32: E37P (designed binder)
chain: SMEEEVEKAAKEYEKKKKEAIEKHLEKLKAKDKEAAPRFLKELEEAAKEYAKDEAKTMSEEEAKRRAKKYKEKVLLSELSEEEQKEIKEAEEKLVRTILKYVEEAAK
B33: A63M (designed binder)
chain: SMEEEVEKAAKEYEKKKKEAIEKHLEKLKAKDKEAAERFLKELEEAAKEYAKDEAKTMSEEEMKRRAKKYKEKVLLSELSEEEQKEIKEAEEKLVRTILKYVEEAAK

The target in this test is T1, TNFR1 (Homo sapiens, UniProt P19438).
T1 chain: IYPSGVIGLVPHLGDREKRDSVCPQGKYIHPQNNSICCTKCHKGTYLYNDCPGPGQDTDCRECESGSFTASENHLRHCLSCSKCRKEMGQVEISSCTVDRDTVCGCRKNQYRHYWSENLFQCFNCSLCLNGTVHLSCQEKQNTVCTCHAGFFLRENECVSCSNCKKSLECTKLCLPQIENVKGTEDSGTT
The experiment in a line: yeast display SC50.
For B1, the “apparent Kd (screen)” value was determined as 2.48 nM.

As to B2, the “apparent Kd (screen)” value was 0.869 nM.

As to B3, the “apparent Kd (screen)” value stood at 0.446 nM.

With B4, the “apparent Kd (screen)” value came out at 7.07 nM.

In the case of B5, the “apparent Kd (screen)” value was 0.49 nM.

Regarding B6, the “apparent Kd (screen)” value came to 1.54 nM.

Consider B7, for which the “apparent Kd (screen)” value stood at 11.4 nM.

For B8, the “apparent Kd (screen)” value was determined as 0.446 nM.

Regarding B9, the “apparent Kd (screen)” value worked out at 15.2 nM.

With B10, the “apparent Kd (screen)” value came to 0.653 nM.

Consider B11, for which the “apparent Kd (screen)” value was 0.446 nM.

Turning to B12, the “apparent Kd (screen)” value was determined as 0.593 nM.

Regarding B13, the “apparent Kd (screen)” value stood at 1.4 nM.

Take B14: the “apparent Kd (screen)” value turned out to be 13.8 nM.

For B15, the “apparent Kd (screen)” value is 0.718 nM.

Consider B16, for which the “apparent Kd (screen)” value worked out at 0.49 nM.

With B17, the “apparent Kd (screen)” value was 1.86 nM.

B18: the “apparent Kd (screen)” value was 13.8 nM.

Consider B19, for which the “apparent Kd (screen)” value was 0.446 nM.

In the case of B20, the “apparent Kd (screen)” value is 5.84 nM.

For B21, the “apparent Kd (screen)” value was determined as 2.73 nM.

For the molecule B22, the “apparent Kd (screen)” value was 1.16 nM.

For the molecule B23, the “apparent Kd (screen)” value is 9.41 nM.

Consider B24, for which the “apparent Kd (screen)” value came to 0.869 nM.

Consider B25, for which the “apparent Kd (screen)” value was found to be 0.539 nM.

Take B26: the “apparent Kd (screen)” value worked out at 0.653 nM.

For the molecule B27, the “apparent Kd (screen)” value worked out at 12.5 nM.

For B28, the “apparent Kd (screen)” value is 2.48 nM.

As to B29, the “apparent Kd (screen)” value worked out at 13.8 nM.

B30: the “apparent Kd (screen)” value came out at 1.4 nM.

As to B31, the “apparent Kd (screen)” value was determined as 9.41 nM.

Take B32: the “apparent Kd (screen)” value came out at 0.49 nM.

Take B33: the “apparent Kd (screen)” value is 9.41 nM.
